Experimental findings from PMC12176259, “Bacterial transcriptional repressor NrdR – a flexible multifactorial nucleotide sensor” (The Febs Journal, 2024) are described below.

Several values for one entry are separate records, joined by “and”; a condition that tells them apart may be missing. Equal entries are not always repeated.

Data set [1] concerns the molecule itself. Put plainly: SEC; Superdex 200 PC 3.2/30, 4–8 °C, Tris–HCl pH 9.0, 300 mM NaCl; NrdR with 0.2 mM ADP and 0.2 mM MgCl2.
Data set [2] deals with the molecule itself. Briefly: SEC; Superdex 200 PC 3.2/30, 4–8 °C, Tris–HCl pH 9.0, 300 mM NaCl; NrdR pre‐incubated with ADP and dATP, nucleotides in the SEC buffer; 10–90 μM NrdR. (Size exclusion chromatography separates by hydrodynamic size, large species first.)
Data set [3] deals with the molecule itself. Put plainly: SEC; Superdex 200 PC 3.2/30, 4–8 °C, Tris–HCl pH 9.0, 300 mM NaCl; ATP‐loaded NrdR (0.1 mM ATP), low MgCl2 (0.1–0.2 mM); 17–55 μM NrdR.
Data set [4] deals with the molecule itself. Briefly: SEC; Superdex 200 PC 3.2/30, 4–8 °C, Tris–HCl pH 9.0, 300 mM NaCl; NrdR pre‐incubated with ATP and dATP, nucleotides in the SEC buffer; 7–55 μM NrdR.
Data set [5] deals with the molecule itself. Briefly: SEC; Superdex 200 PC 3.2/30, 4–8 °C, 25 or 50 mM Tris–HCl pH 9.0, 300 mM NaCl; 55 μM apo‐NrdR, no nucleotide effectors.
Data set [6] concerns the molecule itself. Briefly: SEC; ATP‐dATP‐loaded NrdR at high protein concentrations (440–550 μM).
Data set [7] concerns the molecule itself. Briefly: SEC; Superdex 200 PC 3.2/30, 4–8 °C, Tris–HCl pH 9.0, 300 mM NaCl; ATP‐loaded NrdR, excess MgCl2 (1 mM or higher); elutes in the void volume.
Data set [8] deals with the molecule itself. Briefly: SEC; Superdex 200 PC 3.2/30, 4–8 °C, Tris–HCl pH 9.0, 300 mM NaCl; NrdR pre‐incubated with AMP and dAMP.
Data set [9] concerns the molecule itself. Briefly: crystal structure; SeMet‐EcoNrdR with ATP and dATP, 10 mg/mL; 0.1 M HEPES pH 7.5, 0.2 M MgCl2, 12.5% PEG 3350, 20 °C; one tetramer in the asymmetric unit.

B1: Escherichia coli NrdR (natural protein, E. coli K‐12 strain MG1655)
chain: MHCPFCFAVDTKVIDSRLVGEGSSVRRRRQCLVCNERFTTFEVAELVMPRVVKSNDVREPFNEEKLRSGMLRALEKRPVSSDDVEMAINHIKSQLRATGEREVPSKMIGNLVMEQLKKLDKVAYIRFASVYRSFEDIKEFGEEIARLED
notes: Transcriptional repressor NrdR of E. coli K‐12 strain MG1655, wild type (NP_414947.1); The oligomeric state depends on the loaded nucleotides (apo: dimer); ATP‐dATP, ADP‐dATP, ADP, AMP‐dAMP: tetramer; also called EcoNrdR; E. coli NrdR; source: E. coli BL21(DE3), purified (HisTrap FF Ni‐Sepharose, desalting)
Usually stoichiometry N stands for a count of units in the complex or per binding partner. Turning to B1, the “stoichiometry N” value was 4.5 subunits in data set [1]; 4.8 subunits in [2]; 12.1 subunits in data set [3]; 4.5 subunits in [4]; 2.1 subunits in data set [5]; 8 subunits and 16 subunits in data set [6]. Further, the “stoichiometry N” value in data set [7] was over 33 subunits; in data set [8] it was 4.8 subunits.

B2: Selenomethionine‐derivatized Escherichia coli NrdR (natural protein, E. coli K‐12 strain MG1655)
chain: B1 chain
modifications: selenomethionine in place of methionine
notes: Transcriptional repressor NrdR of E. coli K‐12 strain MG1655, wild type (NP_414947.1), from the same plasmid pET30a(+)::nrdR as m1; Same construct as m1, made in a methionine auxotroph with seleno‐L‐methionine; also called SeMet‐EcoNrdR; Se‐Met substituted EcoNrdR; source: E. coli B834 (DE3) in SelenoMet Minimal Media, purified
Regarding B2, the binding result in [9] was “binds”.
